Our source for the Kd and IC50 values is the Immune Epitope Database (IEDB).

Where only a bound is given, the exact number is not on record here.

The target of assay [1] is HLA-B*27:05. Put plainly: IEDB peptide-MHC binding, purified MHC/direct/fluorescence; filed as Kd, often an IC50 or EC50 that approximates it; ≥ and ≤ were set here for values at or beyond the usual limits of such assays. Particulars: source organism: Mammarenavirus juninense.
The target of assay [2] is HLA-A*02:01. The assay is described as above.
The target of assay [3] is HLA-A*69:01. The description is as above.
Assay [4] addresses HLA-A*24:02. Put plainly: IEDB peptide-MHC binding, purified MHC/competitive/radioactivity; filed as Kd, often an IC50 or EC50 that approximates it; ≥ and ≤ were set here for values at or beyond the usual limits of such assays.
For assay [5], the target named is HLA-A*01:01. Described as above. Particulars: source organism: Dengue virus 2 Jamaica/1409/1983.
The target in assay [6] is HLA-A*32:01. Described as above.
For assay [7], the target named is HLA-A*26:01. The description is as above. Particulars: source organism: Dengue virus 2 Jamaica/1409/1983.
Assay [8] deals with HLA-A*02:01. Kind of assay: IEDB peptide-MHC binding, purified MHC/competitive/fluorescence; ≥ and ≤ were set here for values at or beyond the usual limits of such assays.
Assay [9] concerns the target HLA-A*23:01. Put plainly: IEDB peptide-MHC binding, purified MHC/competitive/radioactivity; filed as Kd, often an IC50 or EC50 that approximates it; ≥ and ≤ were set here for values at or beyond the usual limits of such assays.
In assay [10] the target is HLA-A*02:01. Put plainly: IEDB peptide-MHC binding, purified MHC/competitive/fluorescence; filed as Kd, often an IC50 or EC50 that approximates it; ≥ and ≤ were set here for values at or beyond the usual limits of such assays.
The target in assay [11] is HLA-B*15:01. Put plainly: IEDB peptide-MHC binding, purified MHC/direct/fluorescence; filed as Kd, often an IC50 or EC50 that approximates it; ≥ and ≤ were set here for values at or beyond the usual limits of such assays.
The target of assay [12] is HLA-A*30:02. Kind of assay: IEDB peptide-MHC binding, purified MHC/competitive/radioactivity; filed as Kd, often an IC50 or EC50 that approximates it; ≥ and ≤ were set here for values at or beyond the usual limits of such assays. The following applies: source organism: Dengue virus 2 Jamaica/1409/1983.
Assay [13] concerns the target HLA-A*01:01. Kind of assay: IEDB peptide-MHC binding, purified MHC/direct/fluorescence; filed as Kd, often an IC50 or EC50 that approximates it; ≥ and ≤ were set here for values at or beyond the usual limits of such assays.
Assay [14] has as its target HLA-A*11:01. Described as above. Particulars: source organism: SARS-CoV1.
Assay [15] has as its target HLA-A*03:01. The description is as above.
Assay [16] deals with HLA-B*07:02. Described as above.
Assay [17] has as its target HLA-B*40:01. The description is as above. Particulars: source organism: SARS-CoV1.
Assay [18] concerns the target HLA-B*44:02. Put plainly: IEDB peptide-MHC binding, purified MHC/competitive/radioactivity; filed as Kd, often an IC50 or EC50 that approximates it; ≥ and ≤ were set here for values at or beyond the usual limits of such assays. Particulars: source organism: Dengue virus 4 Philippines/H241/1956.
Assay [19] addresses HLA-B*58:01. Put plainly: IEDB peptide-MHC binding, purified MHC/direct/fluorescence; filed as Kd, often an IC50 or EC50 that approximates it; ≥ and ≤ were set here for values at or beyond the usual limits of such assays.
Assay [20] concerns the target HLA-A*30:01. Kind of assay: IEDB peptide-MHC binding, purified MHC/competitive/radioactivity; filed as Kd, often an IC50 or EC50 that approximates it; ≥ and ≤ were set here for values at or beyond the usual limits of such assays. The following applies: source organism: Dengue virus 2 Jamaica/1409/1983.
Assay [21] addresses HLA-A*31:01. Kind of assay: IEDB peptide-MHC binding, purified MHC/direct/fluorescence; filed as Kd, often an IC50 or EC50 that approximates it; ≥ and ≤ were set here for values at or beyond the usual limits of such assays. The following applies: source organism: Francisella tularensis subsp. holarctica LVS.
Where [22] appears, read: source organism: Listeria monocytogenes.
[23] abbreviates: source organism: Dengue virus 2 Jamaica/1409/1983.
[24] abbreviates: source organism: Dengue virus 1 Brazil/97-11/1997.
[25] abbreviates: source organism: Vaccinia virus Copenhagen.
The mark [26] stands for this setting: source organism: Sudan ebolavirus.
Setting [27] is: source organism: Zaire ebolavirus.
Setting [28] is: source organism: Vaccinia virus WR.
The mark [29] stands for this setting: source organism: Encephalitozoon cuniculi.
[30] abbreviates: source organism: Dengue virus 4 Philippines/H241/1956.
Where [31] appears, read: source organism: Entamoeba histolytica HM-1:IMSS.

Consider RRDLKLVDV, for which the dissociation constant Kd (in general, the free concentration of one partner at which half of the binding sites on the other are occupied at equilibrium, for simple one-to-one binding) in assay [1] is no less than 20000 nM.
Take GLYEWISEQ: the Kd in assay [2] (setting [22]) is 177 nM; in [3] (setting [22]), no less than 20000 nM.
Consider KYQLAVTIM, for which the Kd in assay [4] (setting [23]) worked out at 29.2 nM.
In the case of NVHTWTEQY, the Kd in [5] is 6040 nM.
As to TNEVHTWTEQ, in [6] (setting [24]), the dissociation constant (Kd) worked out at 5360 nM.
Regarding LTIGVNYDI, the dissociation constant Kd in [6] (setting [25]) amounted to 525 nM.
Consider EKMETLQRKY, for which, in assay [7], the equilibrium dissociation constant (Kd) is no less than 20100 nM.
Regarding HIPEGETTL, in [8] (setting [26]), the half-maximal inhibitory concentration (IC50) (in general, the point on the concentration scale where inhibition reaches its midpoint) came to 56200 nM.
On to YWVSCGTGNI, for which the Kd in assay [9] (setting [24]) is 165 nM.
For the sequence CYSQVNPLTL, the dissociation constant Kd amounted to 144 nM in assay [4] (setting [24]) and 189 nM in assay [9] (setting [24]).
MMPIKSIVTL: the dissociation constant (Kd) in assay [10] (source organism: Variola virus) stood at 5.1 nM.
Regarding TQFESLKIY, the Kd in assay [11] (source organism: Influenza A virus (A/Chicken/Nanchang/2-220/2001(H3N6))) came out at 211 nM.
In [8] (setting [27]), FLIKFLLIH showed a half-maximal inhibitory concentration (IC50) of no less than 296000 nM.
With RLINNRVLF, the equilibrium dissociation constant (Kd) in assay [6] (setting [28]) was 5.67 nM.
Regarding SQDTTIPDV, the IC50 in assay [8] (setting [27]) was determined as 5340 nM.
In assay [8] (setting [25]), TLNASQYAN had a half-maximal inhibitory concentration (IC50) of no less than 143000 nM.
In assay [10] (source organism: Variola virus), SLYNLVKSSV returned a Kd of 3.2 nM.
DLVHFASPL: in assay [8] (source organism: Hepatitis B virus), the 50% inhibitory concentration (IC50) is no less than 366000 nM.
The sequence LNIMNKLNI came in with an equilibrium dissociation constant (Kd) in assay [10] (setting [25]) of 406 nM.
Consider CLPPPPDGV, for which the IC50 in assay [8] (setting [26]) worked out at 1490 nM.
For the sequence YLWFKRHVY, the values for the Kd in assay [2] (setting [29]) and in [3] (setting [29]) were 4010 nM and 3240 nM, respectively.
For RWFVERNMVT, the dissociation constant Kd in [4] (setting [23]) came to 855 nM.
Regarding YYMATLKNV, the results for the Kd in [4] (setting [30]) and in assay [9] (setting [30]) were 74.2 nM and 319 nM, respectively.
Turning to LLPDSDVFV, the dissociation constant Kd in [10] (setting [28]) was found to be 1.1 nM.
In the case of LHQVFGAIY, the Kd in assay [12] is 42.7 nM.
MIMYLVLGI: the Kd in assay [6] (setting [28]) amounted to 97.9 nM.
For the sequence VQTVRTQVY, the Kd is no less than 24700 nM in [13] (source organism: SARS-CoV1); no less than 44700 nM in assay [14]; 6620 nM in assay [15] (source organism: SARS-CoV1); 16700 nM in [16] (source organism: SARS-CoV1); no less than 168000 nM in assay [17]; 144 nM in [11] (source organism: SARS-CoV1).
Regarding NEELITEQM, the Kd in assay [18] stood at 281 nM.
For the sequence FLTCTDRSV, the Kd in assay [10] (source organism: Human alphaherpesvirus 1 strain 17) worked out at 83 nM.
Turning to RGEDGCWYGM, the Kd in assay [6] (setting [23]) was determined as 11000 nM.
KSFFSRLNW returned a Kd in assay [19] (source organism: Influenza A virus (A/Yilan/515/03(H3N2))) of 139 nM.
Take TSKKRSWPLN: the values for the Kd in [20] and in [6] (setting [23]) were 4530 nM and no less than 38600 nM, respectively.
In assay [8] (setting [26]), EVTEIDQLV registered an IC50 of no less than 86100 nM.
The sequence NVMAADPPK yielded a Kd in assay [13] (source organism: Yersinia pestis) of no less than 20000 nM.
VIWILIVAI: in assay [6] (setting [28]), the Kd is 198 nM.
CLMTYSHHA came in with a dissociation constant (Kd) in [10] (source organism: Escherichia coli F11) of 0.9 nM.
In the case of KQLEWKWGI, the dissociation constant Kd in assay [2] (setting [31]) worked out at 0.7 nM; in assay [3] (setting [31]), 23.2 nM.
Regarding MFMMIFHFV, the equilibrium dissociation constant (Kd) in [15] (source organism: Francisella tularensis subsp. holarctica LVS) was no less than 20000 nM; in [21] it was 12000 nM.
DPSGAYFAW: the dissociation constant (Kd) in assay [16] (source organism: Homo sapiens) stood at 17600 nM; in [19] (source organism: Homo sapiens) it was 1570 nM.
For EINPFYQDV, the values for the dissociation constant (Kd) in assay [2] (setting [31]) and in [3] (setting [31]) were 19500 nM and 7.6 nM, respectively.
